Experimental data as given in PMC4133262, “Discovery of a Eukaryotic Pyrroloquinoline Quinone-Dependent Oxidoreductase Belonging to a New Auxiliary Activity Family in the Database of Carbohydrate-Active Enzymes” (PLoS ONE, 2014).

T1: PQQ domain of CcSDH (Coprinopsis cinerea, UniProt A0A0A8IDB7)
T1 construct: gene PDH; PQQ dehydrogenase domain only: N-terminal 221 residues (heme domain) and last 77 C-terminal residues (with CBM1) removed; begins at T222 (primer encodes TFVSC); secreted from Pichia pastoris
T1 sequence (A0A0A8IDB7 240-649): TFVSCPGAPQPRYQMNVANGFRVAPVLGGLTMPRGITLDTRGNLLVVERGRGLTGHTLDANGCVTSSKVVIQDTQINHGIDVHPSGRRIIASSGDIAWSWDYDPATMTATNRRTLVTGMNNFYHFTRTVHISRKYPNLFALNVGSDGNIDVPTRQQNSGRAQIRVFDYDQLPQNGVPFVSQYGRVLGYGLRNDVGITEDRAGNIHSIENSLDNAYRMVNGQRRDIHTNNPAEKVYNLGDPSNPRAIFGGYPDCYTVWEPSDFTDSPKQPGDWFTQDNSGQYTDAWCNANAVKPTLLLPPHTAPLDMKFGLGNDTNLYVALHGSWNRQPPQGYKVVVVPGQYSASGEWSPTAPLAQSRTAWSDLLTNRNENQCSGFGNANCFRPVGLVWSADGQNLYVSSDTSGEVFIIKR


Columns and labels:
PQQ domain of CcSDH = molecular target: T1, PQQ domain of CcSDH; experiment: isothermal titration calorimetry, single-site model; type: binding
purified protein = substrate: O=CC(=O)[C@@H](O)[C@H](O)[C@H](O)CO; experiment: purified protein; type: biochemical, Coprinopsis cinerea; details: 50 mM Tris-HCl pH 8.5, 1 µM PQQ, 1 mM CaCl2, 50 µM cytochrome c, 30 °C, background reduction by D-glucosone subtracted

Molecule	Kd (PQQ domain of CcSDH)	Km (purified protein)	kcat (purified protein)	kcat/Km (purified protein)
O=C(O)c1cc(C(=O)O)c2c(n1)C(=O)C(=O)c1cc(C(=O)O)[nH]c1-2 [Pyrroloquinoline quinone]	1.11 nM			
CcSDH (C. cinerea sugar dehydrogenase), full-length recombinant (Coprinopsis cinerea) (protein, mature protein without 18-residue signal peptide (726-aa ORF); AA8 cytochrome b + PQQ dehydrogenase + CBM1 domains; secreted from Pichia pastoris (pPICZalpha), glycosylated, 98 kDa on SDS-PAGE; genome locus Chromosome 6:1274274-1277156) QGSPTQWYDSITGVTFSRFYQQDTDASWGYIFPSASGGQAPDEFIGLFQGPASAGWIGNSLGGSMRNNPLLVGWVDGSTPRISARWATDYAPPSIYSGPRLTILGSSGTNGNIQRIVYRCQNCTRWTGGAGGIPTTGSAVFGWAFHSTTKPLTPSDPSSGLYRHSHAAQYGFDIGNARTTLYDYYLQQLTNAPPLSGGAPTQPPTQQPPTTTAPPPPPPSSTFVSCPGAPQPRYQMNVANGFRVAPVLGGLTMPRGITLDTRGNLLVVERGRGLTGHTLDANGCVTSSKVVIQDTQINHGIDVHPSGRRIIASSGDIAWSWDYDPATMTATNRRTLVTGMNNFYHFTRTVHISRKYPNLFALNVGSDGNIDVPTRQQNSGRAQIRVFDYDQLPQNGVPFVSQYGRVLGYGLRNDVGITEDRAGNIHSIENSLDNAYRMVNGQRRDIHTNNPAEKVYNLGDPSNPRAIFGGYPDCYTVWEPSDFTDSPKQPGDWFTQDNSGQYTDAWCNANAVKPTLLLPPHTAPLDMKFGLGNDTNLYVALHGSWNRQPPQGYKVVVVPGQYSASGEWSPTAPLAQSRTAWSDLLTNRNENQCSGFGNANCFRPVGLVWSADGQNLYVSSDTSGEVFIIKRMSGPIVQPPITQPPITTSPPTPTTPPVVQPPTTVAPPQASQTLWGQCGGQGWTGPTLCPANSVCRESNQWYSQCVPA		7.9 (±0.3) mM	74.1 ± 1.4 s⁻¹	9370 M⁻¹ s⁻¹
